A value given as a limit tells only on which side of the number the result lay.

For this test, the target named is T1, factor Xa (FXa, Kordia) (UniProt P00742 41-179; P00742 235-488, limits assumed).
T1 construct: The bovine factor Xa of the Rotachrom kit is a different reagent and is not used here
Nature of the test: ratio of kon for FXa inhibition against plasma AT, with pentasaccharide. On the procedure:
In a second time FXa residual activity is measured by adding 190 μl of S2765 (200 μM) to 10 μl of previous mixture. Initial rate of substrate hydrolysis is then plotted as the function of incubation time with inhibitor and curves are fitted with equation 1 to determine kon (gray lines). Time expressed in minute is plotted in abscissa; substrate hydrolysis rate expressed in OD/s⁻¹ is plotted in ordinate.

T1 sequence (P00742 41-179 limits assumed, form in doubt, chain 1 of 2): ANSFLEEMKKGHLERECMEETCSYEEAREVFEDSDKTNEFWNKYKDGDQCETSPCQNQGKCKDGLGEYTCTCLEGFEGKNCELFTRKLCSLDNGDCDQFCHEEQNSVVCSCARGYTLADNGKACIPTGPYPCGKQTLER
T1 sequence (P00742 235-488 limits assumed, form in doubt, chain 2 of 2): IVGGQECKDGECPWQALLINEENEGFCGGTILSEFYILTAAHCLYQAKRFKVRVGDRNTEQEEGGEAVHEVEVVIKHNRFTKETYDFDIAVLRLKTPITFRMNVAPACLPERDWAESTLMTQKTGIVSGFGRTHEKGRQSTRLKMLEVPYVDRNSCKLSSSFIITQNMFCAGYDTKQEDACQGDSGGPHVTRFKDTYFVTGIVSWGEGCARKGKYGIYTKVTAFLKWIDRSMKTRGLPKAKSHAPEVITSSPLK

B1: AT-N135Q-Pro394 (other)
chain: HGSPVDICTAKPRDIPMNPMCIYRSPEKKATEDEGSEQKIPEATNRRVWELSKANSRFATTFYQHLADSKNDNDNIFLSPLSISTAFAMTKLGACNDTLQQLMEVFKFDTISEKTSDQIHFFFAKLNCRLYRKAQKSSKLVSANRLFGDKSLTFNETYQDISELVYGAKLQPLDFKENAEQSRAAINKWVSNKTEGRITDVIPSEAINELTVLVLVNTIYFKGLWKSKFSPENTRKELFYKADGESCSASMMYQEGKFRYRRVAEGTQVLELPFKGDDITMVLILPKPEKSLAKVEKELTPEVLQEWLDELEEMMLVVHMPRFRIEDGFSLKEQLQDMGLVDLFSPEKSKLPGIVAEGRDDLYVSDAFHKAFLEVNEEGSEAAASTAVVIAGRPSLNPNRVTFKANRPFLVFIREVPLNTIIFMGRVANPCVK
notes: Recombinant double mutant antithrombin made in HEK-293 or BHK-21 cells, secreted
In the case of B1, the “fold lower kon than plasma AT” value was not below 7600 fold.

The values are drawn from patent publication US20100298224A1 (UNIVERSITE PARIS SUD XI, published 2010).
